Assay [1] concerns the target the antigen (SARS-CoV-2 spike (S) protein, form not stated in Example 13) (SARS-CoV-2) (UniProt P0DTC2). Kind of assay: SPR relative binding activity; 1:5 diluted 10 mg/mL, formulation F6, initial.
Assay [2] shares this target. Kind of assay: SPR relative binding activity; 1:5 diluted 10 mg/mL, formulation F5, initial.
The target is the same in assay [3]. Kind of assay: SPR relative binding activity; undiluted 50 mg/mL, formulation F8, nebulized.
Assay [4] has the same target. Kind of assay: SPR relative binding activity; formulation F5, nebulized with Droh.
Assay [5] has the same target. Kind of assay: SPR relative binding activity; 1:5 diluted 10 mg/mL, formulation F8, initial.
The target is the same in assay [6]. Kind of assay: SPR relative binding activity; formulation F5, nebulized with Pariboy.
The target is the same in assay [7]. Kind of assay: SPR relative binding activity; undiluted 50 mg/mL, formulation F6, nebulized.
For assay [8] the target is unchanged. Kind of assay: SPR relative binding activity; 1:5 diluted 10 mg/mL, formulation F5, nebulized.
Assay [9] shares this target.
Assay [10] has the same target. Kind of assay: SPR relative binding activity; undiluted 50 mg/mL, formulation F8, initial.
Assay [11] shares this target. Kind of assay: SPR relative binding activity; formulation F5, nebulized with Aerogen Solo.
Assay [12] has the same target. Kind of assay: SPR relative binding activity; 1:5 diluted 10 mg/mL, formulation F6, nebulized.
Assay [13] has the same target. Kind of assay: SPR relative binding activity; 1:5 diluted 10 mg/mL, formulation F7, initial.
For assay [14] the target is unchanged. Kind of assay: SPR relative binding activity; 1:5 diluted 10 mg/mL, formulation F8, nebulized.
Assay [15] shares this target. Kind of assay: SPR relative binding activity; undiluted 50 mg/mL, formulation F6, initial.
Assay [16] has the same target. Kind of assay: SPR relative binding activity; undiluted 50 mg/mL, formulation F7, nebulized.
Assay [17] has the same target. Kind of assay: SPR relative binding activity; undiluted 50 mg/mL, formulation F5, nebulized.
Assay [18] shares this target. Kind of assay: SPR relative binding activity; reference standard, initial.
Assay [19] shares this target. Kind of assay: SPR relative binding activity; undiluted 50 mg/mL, formulation F5, initial.
For assay [20] the target is unchanged. Kind of assay: SPR relative binding activity; undiluted 50 mg/mL, formulation F7, initial.
The target is the same in assay [21]. Kind of assay: SPR relative binding activity; formulation F5, nebulized with eFlow-Rapid.
For assay [22] the target is unchanged. Kind of assay: SPR relative binding activity; 1:5 diluted 10 mg/mL, formulation F7, nebulized.
For assay [23] the target is unchanged. Kind of assay: SPR relative binding activity; formulation F5, control unnebulized.

Like-named read-outs stand apart in the source and are kept apart here.

DZIF-10c (antibody), sequence (VH): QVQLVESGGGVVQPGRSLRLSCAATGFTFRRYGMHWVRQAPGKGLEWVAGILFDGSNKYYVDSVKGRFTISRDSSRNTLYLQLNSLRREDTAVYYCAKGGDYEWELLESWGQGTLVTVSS
DZIF-10c (antibody), sequence (VL): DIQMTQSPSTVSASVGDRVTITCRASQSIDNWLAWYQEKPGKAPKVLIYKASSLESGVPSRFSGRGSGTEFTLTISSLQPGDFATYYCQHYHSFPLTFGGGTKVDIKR

As for DZIF-10c (antibody), the SPR Binding Activity (RLCA %) turned out to be 96% in assay [1]; 96% in [2]; 96% in assay [3]; 100% in assay [4]; 96% in assay [5]; 100% in assay [6]. The SPR Binding Activity (RLCA %) is 96% in assay [7]; 96% in [8]; 100% in assay [9]; 96% in [10]; 100% in assay [11]; 96% in [12]. The SPR Binding Activity (RLCA %) in assay [13] was determined as 96%; in assay [14] it was 96%; in [15], 95%; in assay [16], 96%; in assay [17], 96%; in assay [18] it was 100%. The SPR Binding Activity (RLCA %) was determined as 96% in assay [19]; 96% in assay [20]; 100% in [21]; 96% in [22]; 100% in [23].

The values above are taken from patent publication US20210371503A1.
